Where no end group is shown, it is not given here.
T1: lipocalin mutein of SEQ ID NO: 14, linked to PEG40 (branched 40k PEG-maleimide on the free Cys at position 87)
T1 construct: hNGAL mutein with Ser 87 back-mutated to Cys and PEGylated there
T1 chain: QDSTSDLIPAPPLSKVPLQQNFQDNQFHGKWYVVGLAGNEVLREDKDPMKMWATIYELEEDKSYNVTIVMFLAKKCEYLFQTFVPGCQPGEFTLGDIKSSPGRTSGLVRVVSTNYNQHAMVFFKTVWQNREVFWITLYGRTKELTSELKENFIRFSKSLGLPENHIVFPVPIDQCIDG

T2: cynomolgus Hepcidin-25 (cynomolgus, UniProt A7XEI3 60-84, not fully specified)
T2 construct: mature
T2 peptide: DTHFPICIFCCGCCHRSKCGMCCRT

T3: C-terminal biotinylated human Hepcidin-25 (human, not fully specified; biotinylated via a Lysine residue coupled to the C-terminus via a Mini-PEG linker)
T3 construct: Bought from Bachem AG; Captured on plates via Neutravidin; also called C-terminal biotinylated hepcidin; C-terminal biotinylated hHepcidin
T3 peptide: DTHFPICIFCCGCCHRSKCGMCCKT

B1: synthetic non-modified human Hepcidin-25 (peptide)
peptide: DTHFPICIFCCGCCHRSKCGMCCKT
modifications: not fully specified (bridges); ends and bridges not checked
notes: also called hHepcidin-25; non-biotinylated human hepcidin
B2: lipocalin mutein of SEQ ID NO: 1 (designed binder)
chain: QDSTSDLIPAPPLSKVPLQQNFQDNQFHGKWYVVGLAGNEVLREDKDPMKMWATIYELEEDKSYNVTIVMFLAKKCEYLFQTFVPGSQPGEFTLGDIKSSPGRTSGLVRVVSTNYNQHAMVFFKTVWQNREVFWITLYGRTKELTSELKENFIRFSKSLGLPENHIVFPVPIDQCIDG
notes: also called Lcn2 mutein; hNGAL mutein
B3: lipocalin mutein of SEQ ID NO: 8 (designed binder)
chain: QDSTSDLIPAPPLSKVPLQQNFQDNQFHGKWYVVGLAGNEVLREDKDPMKMWATIYELKEDKSYNVTIVMPLAEKCEYLFQTFVPGSQPGEFTLGGIKSGPGRTSGLVRVVSTNYNQHAMVFFKVVWQNREVFWVTLYGRTKELTSELKENFIRFSKSLGLPENHIVFPVPIDQCIDG
notes: also called Lcn2 mutein
B4: lipocalin mutein of SEQ ID NO: 13, linked to PEG40 (designed binder)
chain: QDSTSDLIPAPPLSKVPLQQNFQDNQFHGKWYVVGLAGNEVLREDKDPMKMWATIYELKEDKSYNVTIVMPLAEKCEYLFQTFVPGCQPGEFTLGGIKSGPGRTSGLVRVVSTNYNQHAMVFFKVVWQNREVFWVTLYGRTKELTSELKENFIRFSKSLGLPENHIVFPVPIDQCIDG
modifications: branched 40k PEG-maleimide on the free Cys at position 87
notes: hNGAL mutein with Ser 87 back-mutated to Cys and PEGylated there
B5: pegylated mutein of SEQ ID NO: 1 (designed binder)
chain: QDSTSDLIPAPPLSKVPLQQNFQDNQFHGKWYVVGLAGNEVLREDKDPMKMWATIYELEEDKSYNVTIVMFLAKKCEYLFQTFVPGCQPGEFTLGDIKSSPGRTSGLVRVVSTNYNQHAMVFFKTVWQNREVFWITLYGRTKELTSELKENFIRFSKSLGLPENHIVFPVPIDQCIDG
modifications: branched 40k PEG-maleimide on Cys 87
B6: pegylated mutein of SEQ ID NO: 8 (designed binder)
chain: QDSTSDLIPAPPLSKVPLQQNFQDNQFHGKWYVVGLAGNEVLREDKDPMKMWATIYELKEDKSYNVTIVMPLAEKCEYLFQTFVPGCQPGEFTLGGIKSGPGRTSGLVRVVSTNYNQHAMVFFKVVWQNREVFWVTLYGRTKELTSELKENFIRFSKSLGLPENHIVFPVPIDQCIDG
modifications: branched 40k PEG-maleimide on Cys 87

Key:
[1] = biological target: murine ferroportin (FPN) carboxy-terminally fused with green fluorescent protein (GFP) (murine), Q9JHI9; assay: cell-based or functional assay
murine ferroportin (FPN) carboxy-terminally fused with green fluorescent protein (GFP) (murine), Q9JHI9, sequence (Q9JHI9 whole entry, the tested form may be a part): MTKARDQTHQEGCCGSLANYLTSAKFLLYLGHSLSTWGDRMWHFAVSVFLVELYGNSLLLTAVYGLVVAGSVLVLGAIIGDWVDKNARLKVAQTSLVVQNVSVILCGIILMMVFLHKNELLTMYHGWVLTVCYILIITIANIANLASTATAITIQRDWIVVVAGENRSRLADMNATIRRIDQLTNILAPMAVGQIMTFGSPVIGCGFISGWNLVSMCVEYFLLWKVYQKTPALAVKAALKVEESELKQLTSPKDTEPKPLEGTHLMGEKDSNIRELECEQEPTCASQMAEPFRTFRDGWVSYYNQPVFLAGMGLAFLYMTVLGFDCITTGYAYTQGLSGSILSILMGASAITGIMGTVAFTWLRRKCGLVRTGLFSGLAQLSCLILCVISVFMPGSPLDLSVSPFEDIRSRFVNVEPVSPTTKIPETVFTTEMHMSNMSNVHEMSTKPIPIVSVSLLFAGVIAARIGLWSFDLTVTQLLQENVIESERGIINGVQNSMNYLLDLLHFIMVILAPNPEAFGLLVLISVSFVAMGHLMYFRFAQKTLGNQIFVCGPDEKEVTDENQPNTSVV

[2] = biological target: T1, lipocalin mutein of SEQ ID NO: 14, …; assay: competition ELISA, free human hepcidin against captured biotinylated hepcidin
[3] = biological target: B4; assay: as above
[4] = biological target: B1; assay: cell-based or functional assay
[5] = biological target: B1; assay: competition ELISA: non-biotinylated human hepcidin-25 titrated against a constant concentration of mutein; free mutein detected on plate-captured biotinylated human hepcidin
Description: The binding affinity of the Lcn2 muteins to non-modified hepcidin-25 in solution was evaluated in a competition ELISA approach. Therefore, a constant concentration of 1 μg/ml C-terminal biotinylated human hepcidin (Bachem AG, CH) was captured on the surface of a polystyrol plate (Greiner, GE) via Neutravidin (Thermo Scientific, 5 μg/ml, GE). In parallel a two step dilution series of non-biotinylated human hepcidin starting from 1 μM was incubated with a constant concentration of hepcidin-specific mutein for 1 h at room temperature in a non-protein binding 96 well polypropylene plate (Nunc, GE). The constant concentration of lipocalin muteins corresponds to the EC₅₀ of the respective muteins as determined in a direct ELISA as described above in this example. In the following the mixture of non-modified human hepcidin and lipocalin mutein was transferred onto the hepcidin-captured Neutravidin plate. The C-terminal biotinylated hepcidin was allowed to compete with the non-modified hepcidin for Anticalin binding for 20 min. at room temperature. During these 20 min, free lipcocalin mutein was bound to the captured hepcidin and detected via a rabbit anti-strep-tag II polyconal antibody (GenScript, USA). A goat anti-rabbit IgG-HRP conjugate (Abcam, UK) was employed as secondary detection antibody. Parallel to the competition assay, anticalin binding was determined on the same plate in a “direct” ELISA, in order to obtain a standard curve linking the RFU values to anticalin concentration. This curve was then used to standardize competition data to the level of anticalins bounds to the plate and fitted with Graphpad software. IC₅₀ values correspond to the half-maximum amount of lipocalin mutein bound to the plate.

cynomolgus Hepcidin-25 [6] = biological target: T2, cynomolgus Hepcidin-25; assay: direct ELISA on cynomolgus hep-25, mutein titrated
Description: (§1) A “direct” ELISA was performed to verify the binding affinity and specificity of the selected Lcn2 muteins. Therefore, a constant concentration of 1 μg/ml C-terminal biotinylated hepcidin (Bachem AG, CH) was captured on the surface of a polystyrol plate (Greiner, GE) via Neutravidin (Thermo Scientific, 5 μg/ml). Two step dilution series of purified Lcn2 muteins were incubated with the captured hepcidin for 1 h at room temperature and detected either via the Strep-tag II using a rabbit anti-strep-tag II polyconal antibody (GenScript, USA) or by using a scaffold-specific polyclonal rabbit antibody. In both cases an anti rabbit IgG-HRP conjugate (Abcam, UK) was employed as secondary detection antibody.
(§2) The absorption ΔA at […] was measured in an ELISA reader (Tecan, GE) and the data were fitted with Graphpad Prism software (Statcom, USA).

[7] = biological target: T3, C-terminal biotinylated human …; assay: direct ELISA, biotinylated hepcidin captured via Neutravidin, mutein titrated
Description: as §1, §2

cynomolgus Hepcidin-25 [8] = biological target: T2, cynomolgus Hepcidin-25; assay: SPR, Biacore T100, mutein amine-coupled to CM5 chip, hepcidin as analyte, 25 C
Description: (§3) Lipocalin muteins were immobilized to a CM5 sensor chip using standard amine chemistry: The surface of the chip was activated using EDC and NHS. Subsequently, 20 μg/mL lipocalin mutein solutions in 10 mM sodium acetate pH 4.5 (60 μg/mL in 10 mM sodium acetate pH 4.0 for pegylated lipocalin mutein) were applied at a flow rate of 5 μL/min until a surface density of 500-700 resonance units (RU) for non-modified lipocalin muteins and of approximately 1600 RU for pegylated lipocalin with the sequence of SEQ ID NO: 13 was achieved. Residual activated groups were saturated with ethanolamine. The reference channels were treated with EDC/NHS following ethanolamine (blank immobilization). All reagents and materials were purchased from GE Healthcare.
(§4) Serial dilutions of human and cynomolgus Hepcidin-25 in running buffer (HBS-EP+, GE Healthcare, BR-1006-68) were applied to the prepared surface. The following parameters were used for the binding assay: contact time 60 s, dissociation time 180-360 s, flow rate 30 μL/min. All measurements were performed on a Biacore T100 instrument (GE Healthcare) at 25° C.
(§5) Data were evaluated with Biacore T100 Evaluation software (V 2.0.1). Double referencing was used. The 1:1 Binding model (Langmuir) was used to fit the raw data.

cynomolgus Hepcidin-25 [9] = biological target: T2, cynomolgus Hepcidin-25; assay: SPR (Biacore T100), mutein immobilized on CM5 chip, hepcidin-25 in solution, 1:1 model
Description: as §3, §4, §5

[10] = biological target: B1; assay: as above
Description: as §3, §4, §5

[11] = biological target: B1; assay: SPR, Biacore T100, pegylated mutein amine-coupled to CM5 chip, hepcidin as analyte, 1:1 model, 25 C
Description: as §3, §4, §5

[12] = biological target: T3, C-terminal biotinylated human …; assay: direct ELISA, biotinylated hepcidin captured via Neutravidin
Description: as §1, §2

Binder	EC80 of hepcidin-mediated degradation of the Fpn-GFP fusion protein (GFP fluorescence by flow cytometry) [1] [nM]	factor by which pegylation reduced the binding affinity (against the non-pegylated mutein) [2] [fold]	factor by which pegylation reduced the binding affinity (against the non-pegylated mutein) [3] [fold]	IC50 of neutralization of hepcidin-induced (40 nM) internalization and degradation of FPN-GFP in T-REx-293 cells, GFP fluorescence by flow cytometry [4] [nM]	IC50 [5] [nM]	Kd (cynomolgus Hepcidin-25 [6]) [nM]	Kd [7] [nM]	fold higher affinity compared to the human target (cynomolgus Hepcidin-25 [8]) [fold]	Kd (cynomolgus Hepcidin-25 [9]) [nM]	koff (cynomolgus Hepcidin-25 [9]) [s⁻¹]	kon (cynomolgus Hepcidin-25 [9]) [M⁻¹ s⁻¹]	Kd [10] [nM]	koff [10] [s⁻¹]	kon [10] [M⁻¹ s⁻¹]	Kd [11] [nM]	factor by which pegylation reduced the binding affinity (against the non-pegylated mutein) [12] [fold]
B1	40	4	2													
B2				66	0.34	0.43	0.26	~2	0.332	0.000934	2.84e+06	0.589	0.00116	1.97e+06		
B3				31	0.1	0.67	0.66	~2	0.066	0.000245	3.74e+06	0.123	0.000178	1.45e+06		
B4				34	0.24		3.49	~2				0.041	0.000123	2.98e+06	0.04	
B5																8
B6																5

From patent publication US20170369542A1 (Pieris, published 2017)
